Assay results reported in the supplement of paper PMC9170038.

System: K4 kissing-loop RNA reporter
Assay: apparent KD of K4 kissing-loop reporter; higher = weaker reporter binding
Conditions: Eterna round: R107
Description: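 RNA-MaP round R107: designed RNA switches with theophylline, tryptophan, arginine or FMN aptamers are transcribed on-chip within common flanks. They are titrated with a labelled K4 kissing-loop RNA reporter in RNA-MaP buffer (100 mM Tris pH 7.5, 80 mM KCl, 4 mM MgCl2), without ligand or with the indicated ligand. Median apparent KD per design.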

[1] = input ligand: theophylline 20 uM
[2] = input ligand: tryptophan 2.4 mM
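Further: bound reporter read as fluorescence of individual clusters on recovered sequencing chips by microscopy, with normalized cluster intensities fitted with a binding model.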

| Sequence | apparent KD of K4 kissing-loop reporter (input ligand: FMN 200 uM) | apparent KD of K4 kissing-loop reporter (input ligand: arginine 13.2 mM) | apparent KD of K4 kissing-loop reporter (input ligand: none) | apparent KD of K4 kissing-loop reporter [1] | apparent KD of K4 kissing-loop reporter [2] |
| --- | --- | --- | --- | --- | --- |
| UGGAGUUGACGAAAAGUCAACUCCUGAGAAGGAGCGGACGAAAGUCCAGGUAGGUCGCUCACUACCAGUGAUGUUGGUACUUAAA [#OpenEnded 4] | 152 nM | 235 nM | 198 nM | 228 nM | 192 nM |
| UGGAGUUGACGAAAAGUCAACUCCUGAGAAGGAGCGGACGAAAGUCCAGGUAGGUCGCUCACUACCAGUGAUGUUGGUACUUGAA | 276 nM | 293 nM | 259 nM | 428 nM | 185 nM |
| UGGAUAUAGUGAUGUUAUAUAGAGAGUGAUACCAGUUUAGAGAAGAACCCUUGGCAGCAUAAAGAAGUAUCAUUAGAGAAGAAUG [ExTheophyl.Ao] | 229 nM | 216 nM | 282 nM | 224 nM | 176 nM |
| UGGGCUGCCUGAGGAUAUAGAGACGAGUGAUGUUCGUGGAUAAGAGCCAGUGAUGUUGGGUUAUUUCUAGAAGGCGGGCGAACUU [Exclusion FMN B GF8] | 105 nM | 104 nM | 120 nM | 129 nM | 115 nM |
| UGGUUUAGAAGUGAUGUUUCGAUAAGUGAUACCAGACAAAAGAAAGUCCCUUGGCAGCACAAUGAUGCCAAGGAAACGGCAUGAU [Same State Theophylline A GF 1] | 118 nM | 146 nM | 115 nM | 127 nM | 98.9 nM |
| UGUACCGAGUCAGGAUAUGGCGUCGAAAGACGAAUGCUAGUGAUGUUAGGGAUCUGCGAAAGCAGUUCAGAAGGGACUUGGUACU [FmnBS 26 G36+U67] | 275 nM | 292 nM | 404 nM | 379 nM | 338 nM |
| UGUACCGAGUGAGGAUAUGUCGUCGAAAGACGAAAUGGAGUGAUGUUCCUUAAACUGCGAAAGCAGACAGAAGGCACUUGGUACU [FmnBS 29 G11+C75] | 129 nM | 171 nM | 192 nM | 170 nM | 168 nM |
| UGUACCGAGUGAGGAUAUGUCGUCGAAAGACGAAAUGGAGUGAUGUUCCUUAAACUGCGAAAGCAGACAGAAGGUACUUGGUACU [FmnBS 29 G11+U75] | 144 nM | 298 nM | 302 nM | 312 nM | 275 nM |
| UGUAUGUGAUUUGAUACCAGACCAGCUGGUGGAAACUGAGUGAUGUUCAGUUAGGUUUGGGUCCCUUGGCAGCAAAUCGCAUACU [KL-SSTheoB28] | 152 nM | 119 nM | 127 nM | 134 nM | 138 nM |
| UGUAUGUGAUUUGAUACCAGACCAGCUGGUGGUACCUGAGUGAUGUUCGGGAUGGUCUGGGUCCCUUGGCAGCAAAUCGCAUACU [KL-SSTheoB21] | 295 nM | 175 nM | 254 nM | 212 nM | 212 nM |
| UGUAUGUGAUUUGAUACCAGACCAGCUGGUGGUGUAUGAGUGAUGUUCAUGCUGGUUUGGGUCCCUUGGCAGCAAAUCGCAUACU [KL-SSTheoB29] | 10.6 nM | 6.48 nM | 8.46 nM | 7.6 nM | 8.89 nM |
| UGUCAUUGGUCGGAUACCAGUUGAUGACGAAUACGUCAACUGGAGUGAUGUUCCUAAAACAACCCUUGGCAGCCGACCGAUGACU [MAT - Same State Theophlline B - Mod of Eli - D1] | 937 nM | 641 nM | 852 nM | 666 nM | 761 nM |
| UGUCAUUGGUCGGCCGCCACUACAAGGUCAAAGACCAAAGAGUGAUGUUCUUAGACGAAAGUCAGUAGGACCGGGACCGAUGACU [TrypBS 8 #SwitchBubble #K4Middle] | 1050 nM | 707 nM | 1320 nM | 674 nM | 274 nM |
| UGUCAUUGGUCGGCCGCCACUAGAAGGUCAAAGACCAUAGAGUGAUGUUCUGAGACGAAAGUCACUAGGACCGGGACCGAUGACU [TrypBS 6 #SwitchBubble #K4Middle] | 462 nM | 385 nM | 1140 nM | 440 nM | 786 nM |
| UGUCAUUGGUCGGCCGCCACUAGGACCGGGUUUUGCCUAGUGAUGUUAGUAUGAACGGCCGCCACUAGGACCGGGACCGAUGACU [KL-SSTryp-B26 #DoubleAptamer] | 468 nM | 279 nM | 473 nM | 377 nM | 105 nM |
| UGUCAUUGGUCGGCCGCCACUUCAUAAAAGAGUGAUGUUCUAAAGACGGAUCGAAAGAUCUGUCGAAGGACCGGGACCGAUGACU [TrypBS 19 #SwitchBubble #StaticStem] | 508 nM | 168 nM | 209 nM | 419 nM | 753 nM |
| UGUCAUUGGUCUGAUACCAGAAGAUAAUCUGGAGUGAUGUUCCAAGUACGACAAAGUCGCUUCCCUUGGCAGCAGACCGAUGACU [TheoBS 19 #SwitchBubble 13 #StaticStem] | 1040 nM | 759 nM | 1110 nM | 619 nM | 886 nM |
| UGUCAUUGGUCUGAUACCAGUUAGACCGAUAGGUCAAAACUGGAGUGAUGUUCCUAAAAUAACCCUUGGCAGCAGACCGAUGACU [TheoBS 2 #SwitchBubble #StaticStem] | 1380 nM | 601 nM | 1010 nM | 856 nM | 954 nM |
| UGUCUUUUUUUGAUGUUUUUUGUAUAAUGGCAGGAUAUCGUAGAUGCGAGAAGGGCUUUUAUGCGUUAUGAGUGAUGUUUGUAGG [vjjbvmullin] | 329 nM | 260 nM | 297 nM | 332 nM | 225 nM |
| UGUGAGCUGUCGACAAAAGUCGACUAAAACUAGGAUAUGACGAAAGUCAGAAGGAGUCAAUAAUGGAGUGAUGUUCCUGCUCACU [FmnA 9 U31+A55] | 277 nM | 367 nM | 414 nM | 386 nM | 331 nM |
| UGUGAUGUGUAGUGUAAUGUUUUGCGGGAUACCAGAGUCUUUUUAUUCCCUUGGCAGCUUGAGUGAUGUUUGAUGCUGUUCUUGU [llmdmullin] | 519 nM | 351 nM | 479 nM | 439 nM | 326 nM |
| UGUGAUGUGUAGUGUUAUGUUUUGAGGGAUACCAGAGUGUUUUUAUUCCCUUGGCAGCUUGAGUGAUGUUUGAUGUUGUUGUUGU [knnumullin] | 303 nM | 166 nM | 232 nM | 213 nM | 187 nM |
